For one molecule, Kd results are on record in PMC6345952, “Novel pseudo-aspartic peptidase from the midgut of the tick Rhipicephalus microplus” (Scientific Reports, 2019).

The term Kd denotes the concentration at which binding is half-saturated. Lower therefore signals a tighter complex.

This assay has as its target T1, Rhipicephalus microplus pseudo-aspartic peptidase wild type (Rhipicephalus microplus, UniProt A0A411AQW7 21-361).
T1 construct: RmPAP, pseudo-aspartic peptidase of Rhipicephalus microplus (GenBank MH427522); mature RmPAP (R21-K361) without the putative signal peptide M1-A20; lacks the second catalytic Asp (Pro242); Cloned into pET14b with an N-terminal His tag; the primers that fix the construct's limits are in Sup; also called RmPAPWT; RmPAP
T1 sequence: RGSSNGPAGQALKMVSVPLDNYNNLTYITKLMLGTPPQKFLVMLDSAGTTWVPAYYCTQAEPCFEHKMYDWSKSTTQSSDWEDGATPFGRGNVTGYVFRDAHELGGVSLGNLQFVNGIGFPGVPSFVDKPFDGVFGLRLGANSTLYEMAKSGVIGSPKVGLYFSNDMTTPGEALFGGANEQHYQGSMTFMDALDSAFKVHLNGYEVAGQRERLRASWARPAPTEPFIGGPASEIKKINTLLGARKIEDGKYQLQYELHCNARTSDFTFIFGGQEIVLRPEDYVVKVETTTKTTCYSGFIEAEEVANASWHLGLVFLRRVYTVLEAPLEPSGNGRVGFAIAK
Kind of assay: SPR; Biacore T-200; bovine hemoglobin immobilised on a CM5 chip (FC 2) in acetate buffer pH 5.5, BSA on FC 1 as reference; increasing concentrations of RmPAPWT injected in 10 mM phosphate-citrate buffer, pH 4, 0.15 M NaCl, 20 uL/min; steady-state response (FC2 - FC1) fitted. To be noted: both partners purified. (SPR reads the build-up and loss of mass on a sensor chip optically.)

B1: bovine hemoglobin (complex)
chain 1: not shown
chain 2: not shown
notes: hemoglobin alpha chain, bovine; hemoglobin beta chain, bovine; the heme groups are not written
Molecule B1 displayed a Kd of 33.5 nM.
